Laboratory results reported in paper PMC7117912.
Ends that are not written are not given here.

Columns and labels:
[1] = target: HLA-A*02:01 (human MHC I heavy chain ectodomain, amino acids 1-278) refolded with human β2-microglobulin (human); test: fluorescence polarisation
[2] = target: H2-D^b (mouse MHC I heavy chain ectodomain) refolded with human β2-microglobulin (mouse | human); test: fluorescence polarisation; one-step dissociation, uncatalyzed: 300 nM MHC I loaded with TAMRA-labeled peptide, 1000-fold molar excess (300 µM) of unlabeled competitor peptide, no TAPBPR; 23°C, 1xHBS; one-phase exponential decay

Row | Binder | koff [1] [s⁻¹] | koff [2] [s⁻¹]
1 | FLPSDC(TAMRA)FPSF [FLPSDC*FPSF (fluorescently labeled medium-affinity peptide for HLA-A*02:01)] | 0.0019 | –
2 | ASNC(TAMRA)NMETM [ASNC*NMETM (fluorescently labeled high-affinity peptide for H2-D^b)] | – | 0.0002
3 | TQSC(TAMRA)NTQSI [TQSC*NTQSI (fluorescently labeled medium-affinity peptide for H2-D^b)] | – | 0.00253
